This is an account of results in publication PMC11051826, “Screening and Application of DNA Aptamers for Heparin-Binding Protein”.

Series [1] addresses T1, Heparin-binding protein (HBP) (Homo sapiens, UniProt P20160 27-248).
T1 sequence: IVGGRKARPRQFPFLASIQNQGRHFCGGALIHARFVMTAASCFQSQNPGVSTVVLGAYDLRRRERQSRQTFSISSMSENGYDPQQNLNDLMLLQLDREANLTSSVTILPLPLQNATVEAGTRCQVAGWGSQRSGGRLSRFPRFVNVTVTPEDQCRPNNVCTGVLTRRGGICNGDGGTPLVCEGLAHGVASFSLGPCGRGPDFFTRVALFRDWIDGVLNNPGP
The series can be described thus: SPR; SPR: Biacore T200, CM5 with 815 RU HBP, aptamer 0-1 uM in PBS (NaCl 137 mM, KCl 2.67 mM, Na2HPO4 10 mM, KH2PO4 2 mM, pH 7.4; composition given for CD), 25 C; flow: 500 nM aptamer, PBS, room temperature, 60 min. To be noted: protein: commercial. Background: SPR reads the build-up and loss of mass on a sensor chip optically.

Series [2] concerns the target T1, Heparin-binding protein (HBP). The series can be described thus: SPR; HBP immobilized, PBS, 25 C; SPR: Biacore T200, CM5 with 815 RU HBP, aptamer 0-1 uM in PBS (NaCl 137 mM, KCl 2.67 mM, Na2HPO4 10 mM, KH2PO4 2 mM, pH 7.4; composition given for CD), 25 C; flow: 500 nM aptamer, PBS, room temperature, 60 min. To be noted: protein: commercial; label: FAM in flow cytometry.

The target in a further series is Interleukin-6 (IL-6) (UniProt P05231 30-212). The series can be described thus: flow cytometry (magnetic beads); 500 nM aptamer; SPR: Biacore T200, CM5 with 815 RU HBP, aptamer 0-1 uM in PBS (NaCl 137 mM, KCl 2.67 mM, Na2HPO4 10 mM, KH2PO4 2 mM, pH 7.4; composition given for CD), 25 C; flow: 500 nM aptamer, PBS, room temperature, 60 min. To be noted: protein: commercial; label: FAM in flow cytometry. A general note: In flow cytometry, cells or beads pass a laser one at a time.

In the next series the target is T2, C-reactive protein (CRP) (UniProt P02741 19-224).
T2 sequence: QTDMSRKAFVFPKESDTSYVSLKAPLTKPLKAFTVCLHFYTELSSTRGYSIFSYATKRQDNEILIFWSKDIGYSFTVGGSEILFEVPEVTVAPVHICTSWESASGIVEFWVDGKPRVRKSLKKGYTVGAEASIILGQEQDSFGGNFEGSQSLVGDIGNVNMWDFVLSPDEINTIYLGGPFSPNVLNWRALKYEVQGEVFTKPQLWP
The series is described as above. To be noted: protein: commercial; chain copies: 5; label: FAM in flow cytometry.

The next series addresses T3, Procalcitonin (PCT) (UniProt P01258 26-141).
T3 sequence: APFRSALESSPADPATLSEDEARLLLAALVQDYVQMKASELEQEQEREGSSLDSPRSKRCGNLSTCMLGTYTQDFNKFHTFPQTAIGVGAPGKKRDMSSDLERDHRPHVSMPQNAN
Described as above. To be noted: protein: commercial; label: FAM in flow cytometry.

The next series deals with T4, Serum amyloid A1 (SAA1) (UniProt P0DJI8 19-122).
T4 sequence: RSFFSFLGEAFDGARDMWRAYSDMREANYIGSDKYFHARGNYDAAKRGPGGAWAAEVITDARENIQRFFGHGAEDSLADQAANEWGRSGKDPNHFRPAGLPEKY
The description is as above. To be noted: protein: commercial; label: FAM in flow cytometry.

As usually defined, the Kd is a measure of binding affinity in units of concentration.

Interleukin-6 (IL-6), sequence (P05231 30-212): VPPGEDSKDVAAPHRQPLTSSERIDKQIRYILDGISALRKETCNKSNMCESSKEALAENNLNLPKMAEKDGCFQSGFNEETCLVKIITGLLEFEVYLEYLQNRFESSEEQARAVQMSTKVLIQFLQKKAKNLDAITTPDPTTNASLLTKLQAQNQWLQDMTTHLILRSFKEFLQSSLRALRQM

B1: Apt-02 (ssDNA)
DNA: TTCAGCACTCCACGCATAGCTTCACCTACCGCGCAGCTCAGTCGTTGCCCACACGACCTATGCGTGCTACCGTGAA
As to B1, the binding signal in series [1] (label: FAM in flow cytometry) worked out at 162 RU. Further, the Kd in series [2] was determined as 1.44 nM. Further, the binding result with Interleukin-6 (IL-6), in the series with C-reactive protein (CRP), in the series with Procalcitonin (PCT) and in the series with Serum amyloid A1 (SAA1) was “no binding” each time.

B2: Apt-14 (ssDNA)
DNA: TTCAGCACTCCACGCATAGCTTCACCTACCGCCAATCAGCTCAGTGTGTCTCCACACCTATGCGTGCTACCGTGAA
As to B2, in series [1], the binding signal came out at 50.3 RU.

B3: Apt-07 (ssDNA)
DNA: TTCAGCACTCCACGCATAGCCTTGCCTACCGGACGAAGTACTCAGTCACTCCGTGACCTATGCGTGCTACCGTGAA
As to B3, the binding signal in series [1] turned out to be 76.2 RU.

B4: Apt-18 (ssDNA)
DNA: TTCAGCACTCCACGCATAGCTTTACCTACCGCATCGCTCAGTCAACCATTGGTGGACCTATGCGTGCTACCGTGAA
The molecule B4 registered a binding signal in series [1] of 41.2 RU.

B5: Apt-12 (ssDNA)
DNA: TTCAGCACTCCACGCATAGCTTCACCTACTGGCATATGCCTCAGTCCACTCCTGGACCTATGCGTGCTACCGTGAA
Consider B5, for which, in series [1], the binding signal is 107 RU.

B6: Apt-15 (ssDNA)
DNA: TTCAGCACTCCACGCATAGCTTCACCTACTGCCCTAGCTCAGCCGTCTCCATCCGGCCTATGCGTGCTACCGTGAA
Take B6: in series [1], the binding signal came out at 72.5 RU.

B7: Apt-04 (ssDNA)
DNA: TTCAGCACTCCACGCATAGCTTCATCTACCCCGCCAAGGTCAGCCACGTCAGTGTGCCTATGCGTGCTACCGTGAA
In turn, B7 returned a binding signal in series [1] of 121 RU.

B8: Apt-09 (ssDNA)
DNA: TTCAGCACTCCACGCATAGCCTTGCCTACCGATCCTGGATCTCAGCTGTACCACAGCCTATGCGTGCTACCGTGAA
Molecule B8 came in with a binding signal in series [1] of 87.5 RU.

B9: Apt-20 (ssDNA)
DNA: TTCAGCACTCCACGCATAGCTTCACCTACCGCCGAAGGCTCAGTCCGTGCTTCGGACCTATGCGTGCTACCGTGAA
In series [1], B9 returned a binding signal of 99 RU.

B10: Apt-05 (ssDNA)
DNA: TTCAGCACTCCACGCATAGCTTCACCTACACCGCGACCGCGTTCAGCCTCTGCAGGCCTATGCGTGCTACCGTGAA
Turning to B10, the binding signal in series [1] worked out at 132 RU.

B11: Apt-03 (ssDNA)
DNA: TTCAGCACTCCACGCATAGCTTCACCTACGAACGCCAGTGACAGCACCGATCAGTGCCTATGCGTGCTACCGTGAA
As for B11, the binding signal in series [1] is 119 RU.

B12: Apt-08 (ssDNA)
DNA: TTCAGCACTCCACGCATAGCTCATCGCGAGCGACACGTTACCGTGCTTTACTACCGCCTATGCGTGCTACCGTGAA
B12 displayed a binding signal in series [1] of 79 RU.

B13: Apt-13 (ssDNA)
DNA: TTCAGCACTCCACGCATAGCTCATCGCCTGCGACATGCTAGCATGCTTTACTACTGCCTATGCGTGCTACCGTGAA
For the molecule B13, the Kd in series [2] was 1.04 nM. The binding result with Interleukin-6 (IL-6), in the series with C-reactive protein (CRP), with Procalcitonin (PCT) and with Serum amyloid A1 (SAA1) was “no binding” throughout.

B14: Apt-01 (ssDNA)
DNA: TTCAGCACTCCACGCATAGCTTCACCTACCGCAATCCGTTGCTCAGTGCTACCGCACCTATGCGTGCTACCGTGAA
In series [1] (label: FAM in flow cytometry), B14 showed a binding signal of 424 RU. This molecule also gave a dissociation constant Kd in series [2] of 3.42 nM. Further, the binding result with Interleukin-6 (IL-6), with C-reactive protein (CRP), with Procalcitonin (PCT) and with Serum amyloid A1 (SAA1) was “no binding” throughout.
